Laboratory results from patent publication US20200188539A1 (CURATORS OF THE UNIVERSITY OF MISSOURI, published 2020).
Square brackets hold non-standard residues; d marks the D form. * marks the point of attachment. DUPA = PSMA-binding small-molecule urea, O=C(O)CC[C@H](NC(=O)N[C@@H](CCC(=O)*)C(=O)O)C(=O)O; DOTA = O=C(O)CN1CCN(CC(=O)O)CCN(CC(=O)*)CCN(CC(=O)O)CC1; Sta = CC(C)C[C@H](N)[C@@H](O)CC(=O)O; 4Abz = Nc1ccc(C(=O)O)cc1; Ahx = NCCCCCC(=O)O; Ava = NCCCCC(=O)O

B1: [DUPA-6-Ahx-[^natIn-DOTA-AMBA-RM2] (peptide)
peptide: {DUPA-Ahx}-K(DOTA)[4Abz][dF]QWAVGH[Sta]L-NH2
modifications: also: DOTA complexed with natural indium
B2: [DUPA-6-Ahx-[^natIn-DOTA]-5-Ava- RM2] (peptide)
peptide: {DUPA-Ahx}-K(DOTA)[Ava][dF]QWAVGH[Sta]L-NH2
modifications: also: DOTA complexed with natural indium
B3: [DUPA-6-Ahx-[DOTA]-AMBA-RM2] (peptide)
peptide: {DUPA-Ahx}-K(DOTA)[4Abz][dF]QWAVGH[Sta]L-NH2
notes: Unmetallated bivalent conjugate; also called [DUPA-6-Ahx-Lys[DOTA]-X-RM2], X=AMBA
B4: [DUPA-6-Ahx-Lys(DOTA)-6-Ahx-RM2] (peptide)
peptide: {DUPA-Ahx}-K(DOTA)[Ahx][dF]QWAVGH[Sta]L-NH2
SMILES: CC(C)C[C@H](NC(=O)C[C@H](O)[C@H](CC(C)C)NC(=O)[C@H](Cc1c[nH]cn1)NC(=O)CNC(=O)[C@@H](NC(=O)[C@H](C)NC(=O)[C@H](Cc1c[nH]c2ccccc12)NC(=O)[C@H](CCC(N)=O)NC(=O)[C@@H](Cc1ccccc1)NC(=O)CCCCCNC(=O)[C@H](CCCCNC(=O)CN1CCN(CC(=O)O)CCN(CC(=O)O)CCN(CC(=O)O)CC1)NC(=O)CCCCCNC(=O)CC[C@H](NC(=O)N[C@@H](CCC(=O)O)C(=O)O)C(=O)O)C(C)C)C(N)=O
notes: Unmetallated bivalent conjugate; also called [DUPA-6-Ahx-[DOTA]-6-Ahx-RM2]; [DUPA-6-Ahx-Lys[DOTA]-X-RM2], X=6-Ahx
B5: [DUPA-6-Ahx-[DOTA]-5-Ava-RM2] (peptide)
peptide: {DUPA-Ahx}-K(DOTA)[Ava][dF]QWAVGH[Sta]L-NH2
notes: Unmetallated bivalent conjugate; also called [DUPA-6-Ahx-Lys[DOTA]-X-RM2], X=5-Ava; [DUPA-6-Ahx-Lys(DOTA)-X-RM2] formula (I), X=5-aminovaleric acid

Key:
[1] = molecular target: prostate specific membrane antigen (human (human prostate LNCaP cells), UniProt Q04609 1-750); test: cell-based or functional assay
Sequence of prostate specific membrane antigen (Q04609 whole entry): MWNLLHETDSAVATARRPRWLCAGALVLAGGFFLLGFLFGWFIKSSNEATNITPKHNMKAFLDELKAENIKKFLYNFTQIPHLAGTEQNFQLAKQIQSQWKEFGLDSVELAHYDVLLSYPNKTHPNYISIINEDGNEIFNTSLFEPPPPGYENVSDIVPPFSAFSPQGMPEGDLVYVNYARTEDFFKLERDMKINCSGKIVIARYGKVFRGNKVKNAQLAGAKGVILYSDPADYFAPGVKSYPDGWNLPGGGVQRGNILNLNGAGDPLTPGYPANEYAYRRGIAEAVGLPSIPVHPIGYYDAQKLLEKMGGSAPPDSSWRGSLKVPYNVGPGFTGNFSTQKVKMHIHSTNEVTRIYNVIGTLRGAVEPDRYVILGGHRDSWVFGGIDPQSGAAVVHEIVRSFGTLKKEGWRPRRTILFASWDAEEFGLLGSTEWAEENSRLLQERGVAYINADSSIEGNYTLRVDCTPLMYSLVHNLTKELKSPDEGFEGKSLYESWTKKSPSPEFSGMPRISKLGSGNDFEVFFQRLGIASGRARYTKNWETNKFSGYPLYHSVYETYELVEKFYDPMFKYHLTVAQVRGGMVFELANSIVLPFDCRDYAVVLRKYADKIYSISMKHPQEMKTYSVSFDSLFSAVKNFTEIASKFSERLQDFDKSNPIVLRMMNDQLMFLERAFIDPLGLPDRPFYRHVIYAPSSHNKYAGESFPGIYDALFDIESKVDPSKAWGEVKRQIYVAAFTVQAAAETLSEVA

[2] = molecular target: T1, gastrin-releasing peptide receptor (human (human prostate PC-3 cells), UniProt P30550 1-384); test: competitive displacement of 125I-(Tyr4)-BBN on GRPR-positive PC-3 cells
T1 construct: whole, on cells; Endogenous receptor on PC-3 cells; also called GRPR; GRPr
T1 sequence (P30550 whole entry): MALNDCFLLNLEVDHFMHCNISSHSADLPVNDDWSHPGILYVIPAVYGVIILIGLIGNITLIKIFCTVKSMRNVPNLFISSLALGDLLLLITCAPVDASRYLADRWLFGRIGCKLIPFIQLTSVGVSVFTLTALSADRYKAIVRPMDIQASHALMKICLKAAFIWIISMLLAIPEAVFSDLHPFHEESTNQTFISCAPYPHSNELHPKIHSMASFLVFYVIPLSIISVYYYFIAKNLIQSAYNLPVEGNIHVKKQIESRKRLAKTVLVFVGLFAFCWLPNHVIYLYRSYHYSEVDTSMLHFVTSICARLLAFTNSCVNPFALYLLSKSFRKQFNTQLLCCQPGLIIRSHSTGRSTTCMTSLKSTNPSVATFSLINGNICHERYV
Description: (§1) (NAAG) as the radioligands. For the GRPR-positive assay, 3×10⁴ PC-3 cells (in D-MEM/F-12 K media containing 0.01 M MEM and 2% BSA, pH=5.5) were incubated with 20,000 counts per minute of [¹²⁵I-(Tyr4)-BBN] and increasing concentrations (1×10⁻¹³-1×10⁻⁵ M) of the metallated targeting vector (1 h, 37° C., 5% CO₂-enriched atmosphere). After incubation, the reaction medium was aspirated and the cells were rinsed three times with cold media. Cell-associated radioactivity was determined using a Packard Riastar gamma counter. The percent of bound radioligand was plotted against the increasing concentrations of the metallated conjugate to determine the IC₅₀ value. IC₅₀ values were determined by curve fitting using Prism Software (version 6.0). For the PSMA-positive assay, the binding affinity was measured using the N-acetylated-α-linked acidic dipeptidase (NAALADase) assay. […] (increasing concentrations 1×10⁻¹³-1×10⁻⁵ M) in 50 μL of Tris-HCl buffer (50 mM, pH=7.4) were incubated with LNCaP tissue culture homogenized cell membranes for a period of 45 min. Then, [N-acetyl aspartyl ³H-glutamate] was added to the reaction mixture and the solution was allowed to incubate for an additional 15 min at 37° C. The enzymatic reaction was stopped by addition of 50 μL of cold sodium phosphate buffer (0.1 M, pH=7.4). [N-acetyl aspartyl ³H-glutamate] and [³H-glutamate] were resolved by cation exchange chromatography using AG 50 W-X8 columns (200-400 mesh). Columns were pre-equilibrated with 0.2 M HCl prior to loading of the reaction mixture. Fractions containing [³H-glutamate] were eluted using 6 mL of 2 M HCl. Scintillation cocktail was added to each fraction and the amount of radioactivity in each was determined by liquid scintillation counting. The percent of bound radioligand was plotted against the increasing concentrations of the conjugate to determine the IC₅₀ value. IC₅₀ values were determined by curve fitting using Prism Software (version 6.0).

[3] = molecular target: T1, gastrin-releasing peptide receptor; test: competitive displacement of 125I-[Tyr4]BBN on human prostate PC-3 cells (FIG. 2)
Description: as §1, with “6.0).” for “6.0). For the PSMA-positive assay, the binding affinity was measured using the N-acetylated-α-linked acidic dipeptidase (NAALADase) assay.”, “[N-acetyl aspartyl ³H-glutamate] and [³H-glutamate] were resolved by cation exchange chromatography using AG 50 W-X8 columns (200-400 mesh). Columns were pre-equilibrated with 0.2 M HCl prior to loading of the reaction mixture. Fractions containing [³H-glutamate] were eluted using 6 mL of 2 M HCl.” left out, “The percent of bound radioligand was plotted against the increasing concentrations of the conjugate to determine the IC₅₀ value.” left out

| Binder | IC50 LNCaP cells (NAALADase assay, [N-acetyl aspartyl 3H-glutamate] substrate, LNCaP homogenized cell membranes) [1] [nM] | IC50 [2] [nM] | IC50 [3] [nM] |
| --- | --- | --- | --- |
| B1 | 14.9 | – | – |
| B2 | 14.4 | – | – |
| B3 | – | 5.27 | – |
| B4 | – | 3.85 | 3.99 |
| B5 | 11.2 | 5.14 | – |
